Assay [1] has as its target T1, Cap1 (CRISPR-associated pore 1) (Parafilimonas terrae, UniProt A0A1I5TJE5, Q118A).
T1 construct: gene SAMN05444277_102160; CARFL domain (residues 85–220), His6-tagged
The experiment in a line: ITC with purified CARFL Q118A domain. It counts as binding.

The target in assay [2] is T2, Cap1 (CRISPR-associated pore 1) (Parafilimonas terrae, UniProt A0A1I5TJE5).
T2 construct: gene SAMN05444277_102160; ITC: CARFL domain (residues 85–220), His6-tagged; cryo-EM: full-length Cap1-His6 in GDN, homotetramer
T2 sequence (A0A1I5TJE5 85-220): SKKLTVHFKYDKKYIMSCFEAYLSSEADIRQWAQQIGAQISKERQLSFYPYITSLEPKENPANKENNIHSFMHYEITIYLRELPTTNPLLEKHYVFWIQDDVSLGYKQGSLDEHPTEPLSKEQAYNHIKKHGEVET
The assay is described as follows: ITC with purified CARFL domain; cryo-EM structure of cA4-bound full-length tetramer ([…] Å). It counts as binding.

The target of assay [3] is Cap1 (CRISPR-associated pore 1), full-length, C-terminal His6 tag (Parafilimonas terrae). The assay is described as follows: cryo-EM structure; apo-Cap1 in GDN, 200 μM protein, 0.5 mM FOM detergent added for grids; map at 3.4 Å, C1 symmetry.
Assay [4] has the same target. The assay is described as follows: cryo-EM structure; Cap1 in GDN, 150 μM (as monomer) with 800 μM cA4, 30 min on ice; two classes: 2.9 Å (C4; DUF4579 not visible) and 3.6 Å (C4; DUF4579 visible, TM1 not resolved).
Assay [5] shares this target. The experiment in a line: SEC-MALS; conjugate SEC-MALS (protein conjugate method) of apo-Cap1 without cOA ligand; Superdex200 10/300 increase; 25 mM Hepes pH 8, 200 mM NaCl, 2 mM β-mercaptoethanol, 5 % glycerol, 375 μM GDN.

What is called Kd is the concentration at which binding is half-saturated. Low readings indicate higher affinity, high ones lower affinity. Consider `Nc1ncnc2c1ncn2[C@@H]1O[C@@H]2COP(=O)(O)O[C@H]3[C@@H](O)[C@H](n4cnc5c(N)ncnc54)O[C@@H]3COP(=O)(O)O[C@H]3[C@@H](O)[C@H](n4cnc5c(N)ncnc54)O[C@@H]3COP(=O)(O)O[C@H]3[C@@H](O)[C@H](n4cnc5c(N)ncnc54)O[C@@H]3COP(=O)(O)O[C@H]2[C@H]1O` [cA4, cyclic tetra-adenylate], for which the Kd is approximately 1200 nM in assay [1] and approximately 33 nM in assay [2].
The stoichiometry N is the number of molecules, sites or subunits per partner or assembly. In the case of “Cap1 (CRISPR-associated pore 1), full-length, C-terminal His6 tag (natural protein)”, the stoichiometry N in assay [3], in assay [4] and in assay [5] was 4 throughout.

For the origin of these results see publication doi:10.1101/2025.11.13.688252, “Cap1 forms a cyclic tetra-adenylate-induced membrane pore during the type III-A CRISPR-Cas immune response” (bioRxiv, 2025).
